B1: SWI/SNF-related matrix-associated actin-dependent regulator of chromatin subfamily D member 3 (Mus musculus), Q6P9Z1 (parent)
chain: MAADEVAGGARKATKSKLFEFLVHGVRPGMPSGARMPHQGAPMGPPGSPYMGSPAVRPGLAPAGMEPARKRAAPPPGQSQAQGQGQPVPTAPARSRSAKRRKMADKILPQRIRELVPESQAYMDLLAFERKLDQTIMRKRVDIQEALKRPMKQKRKLRLYISNTFNPAKPDAEDSDGSIASWELRVEGKLLDDPSKQKRKFSSFFKSLVIELDKDLYGPDNHLVEWHRTPTTQETDGFQVKRPGDLSVRCTLLLMLDYQPPQFKLDPRLARLLGLHTQSRSAIVQALWQYVKTNRLQDSHDKEYINGDKYFQQIFDCPRLKFSEIPQRLTALLLPPDPIVINHVISVDPSDQKKTACYDIDVEVEEPLKGQMSSFLLSTANQQEISALDSKIHETIESINQLKIQRDFMLSFSRDPKGYVQDLLRSQSRDLKVMTDVAGNPEEERRAEFYHQPWSQEAVSRYFYCKIQQRRQELEQSLVVRNT

Variants of: B1
Conditions: with smca4_mouse Smarca4, Q3TKT4
smca4_mouse Smarca4, Q3TKT4, sequence (Q3TKT4 whole entry): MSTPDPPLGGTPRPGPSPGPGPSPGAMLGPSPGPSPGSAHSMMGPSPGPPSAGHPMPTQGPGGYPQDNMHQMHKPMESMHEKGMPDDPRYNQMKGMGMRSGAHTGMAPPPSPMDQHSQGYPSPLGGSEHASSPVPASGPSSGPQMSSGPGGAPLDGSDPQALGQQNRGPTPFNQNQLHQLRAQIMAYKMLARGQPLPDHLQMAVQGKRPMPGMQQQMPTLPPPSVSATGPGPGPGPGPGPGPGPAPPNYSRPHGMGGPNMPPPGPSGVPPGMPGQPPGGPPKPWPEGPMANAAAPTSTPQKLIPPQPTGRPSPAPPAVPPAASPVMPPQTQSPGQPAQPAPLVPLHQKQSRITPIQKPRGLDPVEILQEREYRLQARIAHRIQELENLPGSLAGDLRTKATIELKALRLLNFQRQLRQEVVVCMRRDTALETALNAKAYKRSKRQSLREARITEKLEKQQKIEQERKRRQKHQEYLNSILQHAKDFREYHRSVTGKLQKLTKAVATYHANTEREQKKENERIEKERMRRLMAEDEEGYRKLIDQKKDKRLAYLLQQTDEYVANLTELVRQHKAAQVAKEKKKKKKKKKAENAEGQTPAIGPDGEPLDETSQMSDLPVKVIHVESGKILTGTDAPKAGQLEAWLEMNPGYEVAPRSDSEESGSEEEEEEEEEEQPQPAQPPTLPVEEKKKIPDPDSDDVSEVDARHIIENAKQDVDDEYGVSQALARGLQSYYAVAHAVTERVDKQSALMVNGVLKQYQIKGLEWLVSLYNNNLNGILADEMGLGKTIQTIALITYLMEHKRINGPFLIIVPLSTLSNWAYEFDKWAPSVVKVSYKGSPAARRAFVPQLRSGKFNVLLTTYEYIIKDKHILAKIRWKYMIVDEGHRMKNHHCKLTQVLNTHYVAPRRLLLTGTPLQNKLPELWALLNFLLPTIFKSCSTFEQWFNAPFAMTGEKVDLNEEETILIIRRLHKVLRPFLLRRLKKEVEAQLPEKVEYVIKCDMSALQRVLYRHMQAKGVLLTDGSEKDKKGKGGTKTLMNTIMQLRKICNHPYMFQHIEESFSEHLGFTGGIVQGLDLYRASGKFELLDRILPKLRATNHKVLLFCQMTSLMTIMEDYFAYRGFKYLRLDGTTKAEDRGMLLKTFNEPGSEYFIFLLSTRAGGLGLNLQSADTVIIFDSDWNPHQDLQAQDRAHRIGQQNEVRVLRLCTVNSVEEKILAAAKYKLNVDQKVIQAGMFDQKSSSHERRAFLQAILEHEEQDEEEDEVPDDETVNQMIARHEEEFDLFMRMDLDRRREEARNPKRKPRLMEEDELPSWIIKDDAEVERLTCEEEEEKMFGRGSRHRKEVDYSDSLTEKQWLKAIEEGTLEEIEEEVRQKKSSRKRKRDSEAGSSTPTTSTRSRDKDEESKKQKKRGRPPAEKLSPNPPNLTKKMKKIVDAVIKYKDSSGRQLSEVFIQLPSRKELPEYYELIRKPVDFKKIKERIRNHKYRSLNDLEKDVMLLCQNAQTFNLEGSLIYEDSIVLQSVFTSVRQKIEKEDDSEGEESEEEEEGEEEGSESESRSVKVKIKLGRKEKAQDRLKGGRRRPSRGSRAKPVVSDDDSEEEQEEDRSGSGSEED

Variant | effect of a mutation on the interaction
MAADEVAGGARKATKSKLFEFLVHGVRPGMPSGARMPHQGAPMGPPGSPYMGSPAVRPGLAPAGMEPARKRAAPPPGQSQAQGQGQPVPTAPARSRSAKRRKMADKILPQRIRELVPESQAYMDLLAFERKLDQTIMRKRVDIQEALKRPMKQKRKLRLYISNTFNPAKPDAEDSDGSIASWELRVEGKLLDDPSKQKRKFSSFFKSLVIELDKDLYGPDNHLVEWHRAPTTQETDGFQVKRPGDLSVRCTLLLMLDYQPPQFKLDPRLARLLGLHTQSRSAIVQALWQYVKTNRLQDSHDKEYINGDKYFQQIFDCPRLKFSEIPQRLTALLLPPDPIVINHVISVDPSDQKKTACYDIDVEVEEPLKGQMSSFLLSTANQQEISALDSKIHETIESINQLKIQRDFMLSFSRDPKGYVQDLLRSQSRDLKVMTDVAGNPEEERRAEFYHQPWSQEAVSRYFYCKIQQRRQELEQSLVVRNT [T229A] | disrupting interaction

Reference: IntAct's records for PubMed 22068056
